Experimental findings from patent publication US20200023071A1 are described below.

Test [1] has as its target recombinant human CD32a (human) (UniProt P12318). The test is described as follows: SPR (Biacore T100), antibody immobilized on sensor chip, soluble FcR as analyte, steady state affinity model. In general terms: Surface plasmon resonance follows binding to a sensor surface in real time, without labels.
Test [2] deals with recombinant human CD16a(F) (human) (UniProt P08637). Described as above.
Chain of recombinant human CD16a(F) (human) (P08637 17-208 limits assumed): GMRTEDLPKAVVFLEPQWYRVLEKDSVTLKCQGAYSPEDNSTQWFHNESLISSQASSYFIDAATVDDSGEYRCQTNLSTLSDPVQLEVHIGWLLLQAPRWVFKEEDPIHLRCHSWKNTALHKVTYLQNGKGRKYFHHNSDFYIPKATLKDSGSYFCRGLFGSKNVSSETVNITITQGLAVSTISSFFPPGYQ
The target of test [3] is recombinant human CD16a(V) (human) (UniProt P08637). The description is as above.
Chain of recombinant human CD16a(V) (human) (P08637 17-208 F176V limits assumed): as the sequence (P08637 17-208 limits assumed) above, with F160V counted along it
Test [4] addresses recombinant human CD16b (human) (UniProt O75015). The test is described as above.
Test [5] concerns the target recombinant human CD64 (human) (UniProt P12314). The test is described as follows: SPR (Biacore T100), antibody immobilized on sensor chip, soluble CD64 as analyte, 1:1 kinetic binding model.
The next test addresses human FcRn (human) (UniProt P55899). The test is described as follows: SPR (Biacore T100), antibody immobilized on sensor chip, soluble FcR as analyte, steady state affinity model.

Chain of recombinant human CD16b (human) (O75015 17-200 limits assumed): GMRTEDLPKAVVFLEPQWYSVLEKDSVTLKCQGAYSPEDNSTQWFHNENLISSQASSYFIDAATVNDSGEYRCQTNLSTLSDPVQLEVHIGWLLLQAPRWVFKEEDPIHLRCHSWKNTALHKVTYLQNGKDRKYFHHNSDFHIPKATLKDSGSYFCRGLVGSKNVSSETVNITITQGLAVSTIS
Chain of recombinant human CD64 (human) (P12314 16-292 limits assumed): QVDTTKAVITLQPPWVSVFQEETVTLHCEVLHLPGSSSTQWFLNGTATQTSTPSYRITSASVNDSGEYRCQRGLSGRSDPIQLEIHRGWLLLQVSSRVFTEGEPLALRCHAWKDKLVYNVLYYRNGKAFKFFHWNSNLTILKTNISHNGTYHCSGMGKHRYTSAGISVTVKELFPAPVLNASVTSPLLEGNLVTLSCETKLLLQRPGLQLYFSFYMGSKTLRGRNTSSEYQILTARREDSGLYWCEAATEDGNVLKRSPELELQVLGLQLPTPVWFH
Chain of recombinant human CD32a (human) (P12318 34-217): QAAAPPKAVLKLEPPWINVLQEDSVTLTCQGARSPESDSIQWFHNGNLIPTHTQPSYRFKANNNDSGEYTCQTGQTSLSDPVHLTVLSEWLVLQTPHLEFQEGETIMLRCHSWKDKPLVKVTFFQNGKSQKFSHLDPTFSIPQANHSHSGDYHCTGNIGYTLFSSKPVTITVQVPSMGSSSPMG
Chain of human FcRn (human) (P55899 24-297 limits assumed, chain 1 of 2): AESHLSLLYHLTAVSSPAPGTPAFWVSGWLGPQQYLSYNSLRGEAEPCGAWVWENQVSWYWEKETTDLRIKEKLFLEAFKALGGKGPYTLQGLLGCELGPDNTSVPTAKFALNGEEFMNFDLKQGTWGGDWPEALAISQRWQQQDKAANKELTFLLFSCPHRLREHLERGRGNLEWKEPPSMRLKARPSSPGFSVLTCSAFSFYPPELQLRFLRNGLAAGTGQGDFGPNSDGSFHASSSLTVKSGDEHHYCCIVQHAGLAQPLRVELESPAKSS
Chain of human FcRn (human) (P61769 21-119 limits assumed, chain 2 of 2, further chain): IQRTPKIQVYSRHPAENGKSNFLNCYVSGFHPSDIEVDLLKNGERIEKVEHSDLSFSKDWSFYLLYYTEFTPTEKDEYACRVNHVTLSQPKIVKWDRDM

As a reminder, the Kd is a measure of binding affinity in units of concentration. Regarding “antibody having wild type human IgG1 domain (from UniProt P01857 1-330)”, the Kd in test [1] turned out to be 2080 nM; in test [2], 962 nM; in test [3] it was 734 nM; in test [4], 15000 nM.

For “human IgG1 antibody having a N297S substitution (from UniProt P01857 1-330)”, the Kd in test [5] came to 278 nM; with human FcRn (human), 712 nM.
